The labels stand for the following.
B1: Compound 35 (peptide)
peptide: H-H[Aib]EGSFTSELATILDK([AEEA-AEEA-AEEA-εLys-C20 diacid])QAARDFIAWLIQQKITD-OH
SMILES: CC[C@H](C)[C@H](NC(=O)[C@H](Cc1ccccc1)NC(=O)[C@H](CC(=O)O)NC(=O)[C@H](CCCNC(=N)N)NC(=O)[C@H](C)NC(=O)[C@H](C)NC(=O)[C@H](CCC(N)=O)NC(=O)[C@H](CCCCNC(=O)COCCOCCNC(=O)COCCOCCNC(=O)COCCOCCNC(=O)[C@@H](N)CCCCNC(=O)CCCCCCCCCCCCCCCCCCC(=O)O)NC(=O)[C@H](CC(=O)O)NC(=O)[C@H](CC(C)C)NC(=O)[C@@H](NC(=O)[C@@H](NC(=O)[C@H](C)NC(=O)[C@H](CC(C)C)NC(=O)[C@H](CCC(=O)O)NC(=O)[C@H](CO)NC(=O)[C@@H](NC(=O)[C@H](Cc1ccccc1)NC(=O)[C@H](CO)NC(=O)CNC(=O)[C@H](CCC(=O)O)NC(=O)C(C)(C)NC(=O)[C@@H](N)Cc1c[nH]cn1)[C@@H](C)O)[C@@H](C)O)[C@@H](C)CC)C(=O)N[C@@H](C)C(=O)N[C@@H](Cc1c[nH]c2ccccc12)C(=O)N[C@@H](CC(C)C)C(=O)N[C@H](C(=O)N[C@@H](CCC(N)=O)C(=O)N[C@@H](CCC(N)=O)C(=O)N[C@@H](CCCCN)C(=O)N[C@H](C(=O)N[C@H](C(=O)N[C@@H](CC(=O)O)C(=O)O)[C@@H](C)O)[C@@H](C)CC)[C@@H](C)CC
B2: Compound 36 (peptide)
peptide: H-H[Aib]EGSFTSELATILDK(Stearoyl)QAARDFIAWLIQYKITD-OH
SMILES: CCCCCCCCCCCCCCCCCC(=O)NCCCC[C@H](NC(=O)[C@H](CC(=O)O)NC(=O)[C@H](CC(C)C)NC(=O)[C@@H](NC(=O)[C@@H](NC(=O)[C@H](C)NC(=O)[C@H](CC(C)C)NC(=O)[C@H](CCC(=O)O)NC(=O)[C@H](CO)NC(=O)[C@@H](NC(=O)[C@H](Cc1ccccc1)NC(=O)[C@H](CO)NC(=O)CNC(=O)[C@H](CCC(=O)O)NC(=O)C(C)(C)NC(=O)[C@@H](N)Cc1c[nH]cn1)[C@@H](C)O)[C@@H](C)O)[C@@H](C)CC)C(=O)N[C@@H](CCC(N)=O)C(=O)N[C@@H](C)C(=O)N[C@@H](C)C(=O)N[C@@H](CCCNC(=N)N)C(=O)N[C@@H](CC(=O)O)C(=O)N[C@@H](Cc1ccccc1)C(=O)N[C@H](C(=O)N[C@@H](C)C(=O)N[C@@H](Cc1c[nH]c2ccccc12)C(=O)N[C@@H](CC(C)C)C(=O)N[C@H](C(=O)N[C@@H](CCC(N)=O)C(=O)N[C@@H](Cc1ccc(O)cc1)C(=O)N[C@@H](CCCCN)C(=O)N[C@H](C(=O)N[C@H](C(=O)N[C@@H](CC(=O)O)C(=O)O)[C@@H](C)O)[C@@H](C)CC)[C@@H](C)CC)[C@@H](C)CC
B3: reference compound B (peptide)
peptide: HXEGSFSSELATILDXQAARDFIAWLIQHKITD
HELM: PEPTIDE1{H.[Aib].E.G.S.F.S.S.E.L.A.T.I.L.D.K.Q.A.A.R.D.F.I.A.W.L.I.Q.H.K.I.T.D}|PEPTIDE2{[O=C(O)CCCCCCCCCCCCCCCCC(=O)[*:2]].[gGlu]}$PEPTIDE1,PEPTIDE2,16:R3-2:R2$$$V2.0
SMILES: CC[C@H](C)[C@H](NC(=O)[C@H](Cc1ccccc1)NC(=O)[C@H](CC(=O)O)NC(=O)[C@H](CCCNC(=N)N)NC(=O)[C@H](C)NC(=O)[C@H](C)NC(=O)[C@H](CCC(N)=O)NC(=O)[C@H](CCCCNC(=O)CC[C@H](NC(=O)CCCCCCCCCCCCCCCCC(=O)O)C(=O)O)NC(=O)[C@H](CC(=O)O)NC(=O)[C@H](CC(C)C)NC(=O)[C@@H](NC(=O)[C@@H](NC(=O)[C@H](C)NC(=O)[C@H](CC(C)C)NC(=O)[C@H](CCC(=O)O)NC(=O)[C@H](CO)NC(=O)[C@H](CO)NC(=O)[C@H](Cc1ccccc1)NC(=O)[C@H](CO)NC(=O)CNC(=O)[C@H](CCC(=O)O)NC(=O)C(C)(C)NC(=O)[C@@H](N)Cc1c[nH]cn1)[C@@H](C)O)[C@@H](C)CC)C(=O)N[C@@H](C)C(=O)N[C@@H](Cc1c[nH]c2ccccc12)C(=O)N[C@@H](CC(C)C)C(=O)N[C@H](C(=O)N[C@@H](CCC(N)=O)C(=O)N[C@@H](Cc1c[nH]cn1)C(=O)N[C@@H](CCCCN)C(=O)N[C@H](C(=O)N[C@H](C(=O)N[C@@H](CC(=O)O)C(=O)O)[C@@H](C)O)[C@@H](C)CC)[C@@H](C)CC
B4: Compound 32 (peptide)
peptide: B3 peptide with S7T, I27Q
HELM: PEPTIDE1{H.[Aib].E.G.S.F.T.S.E.L.A.T.I.L.D.K.Q.A.A.R.D.F.I.A.W.L.Q.Q.H.K.I.T.D}|PEPTIDE2{[CCCCCCCCCCCCCCCC(=O)[*:2]].[bAla]}$PEPTIDE1,PEPTIDE2,16:R3-2:R2$$$V2.0
SMILES: CCCCCCCCCCCCCCCC(=O)NCCC(=O)NCCCC[C@H](NC(=O)[C@H](CC(=O)O)NC(=O)[C@H](CC(C)C)NC(=O)[C@@H](NC(=O)[C@@H](NC(=O)[C@H](C)NC(=O)[C@H](CC(C)C)NC(=O)[C@H](CCC(=O)O)NC(=O)[C@H](CO)NC(=O)[C@@H](NC(=O)[C@H](Cc1ccccc1)NC(=O)[C@H](CO)NC(=O)CNC(=O)[C@H](CCC(=O)O)NC(=O)C(C)(C)NC(=O)[C@@H](N)Cc1c[nH]cn1)[C@@H](C)O)[C@@H](C)O)[C@@H](C)CC)C(=O)N[C@@H](CCC(N)=O)C(=O)N[C@@H](C)C(=O)N[C@@H](C)C(=O)N[C@@H](CCCNC(=N)N)C(=O)N[C@@H](CC(=O)O)C(=O)N[C@@H](Cc1ccccc1)C(=O)N[C@H](C(=O)N[C@@H](C)C(=O)N[C@@H](Cc1c[nH]c2ccccc12)C(=O)N[C@@H](CC(C)C)C(=O)N[C@@H](CCC(N)=O)C(=O)N[C@@H](CCC(N)=O)C(=O)N[C@@H](Cc1c[nH]cn1)C(=O)N[C@@H](CCCCN)C(=O)N[C@H](C(=O)N[C@H](C(=O)N[C@@H](CC(=O)O)C(=O)O)[C@@H](C)O)[C@@H](C)CC)[C@@H](C)CC
B5: Compound 33 (peptide)
peptide: B3 peptide with S7T, I27Y
HELM: PEPTIDE1{H.[Aib].E.G.S.F.T.S.E.L.A.T.I.L.D.K.Q.A.A.R.D.F.I.A.W.L.Y.Q.H.K.I.T.D}|PEPTIDE2{[O=C(O)CCCCCCCCCCCCCCCCC(=O)[*:2]].[gGlu].[O=C(COCCOCCN[*:1])[*:2]]}$PEPTIDE1,PEPTIDE2,16:R3-3:R2$$$V2.0
SMILES: CC[C@H](C)[C@H](NC(=O)[C@H](Cc1ccccc1)NC(=O)[C@H](CC(=O)O)NC(=O)[C@H](CCCNC(=N)N)NC(=O)[C@H](C)NC(=O)[C@H](C)NC(=O)[C@H](CCC(N)=O)NC(=O)[C@H](CCCCNC(=O)COCCOCCNC(=O)CC[C@H](NC(=O)CCCCCCCCCCCCCCCCC(=O)O)C(=O)O)NC(=O)[C@H](CC(=O)O)NC(=O)[C@H](CC(C)C)NC(=O)[C@@H](NC(=O)[C@@H](NC(=O)[C@H](C)NC(=O)[C@H](CC(C)C)NC(=O)[C@H](CCC(=O)O)NC(=O)[C@H](CO)NC(=O)[C@@H](NC(=O)[C@H](Cc1ccccc1)NC(=O)[C@H](CO)NC(=O)CNC(=O)[C@H](CCC(=O)O)NC(=O)C(C)(C)NC(=O)[C@@H](N)Cc1c[nH]cn1)[C@@H](C)O)[C@@H](C)O)[C@@H](C)CC)C(=O)N[C@@H](C)C(=O)N[C@@H](Cc1c[nH]c2ccccc12)C(=O)N[C@@H](CC(C)C)C(=O)N[C@@H](Cc1ccc(O)cc1)C(=O)N[C@@H](CCC(N)=O)C(=O)N[C@@H](Cc1c[nH]cn1)C(=O)N[C@@H](CCCCN)C(=O)N[C@H](C(=O)N[C@H](C(=O)N[C@@H](CC(=O)O)C(=O)O)[C@@H](C)O)[C@@H](C)CC
B6: Compound 34 (peptide)
peptide: H-H[Aib]EGSFTSELATILDK([AEEA-AEEA-γGlu-C20 diacid])QAARDFIAWLKQHKITD-OH
SMILES: CC[C@H](C)[C@H](NC(=O)[C@H](Cc1ccccc1)NC(=O)[C@H](CC(=O)O)NC(=O)[C@H](CCCNC(=N)N)NC(=O)[C@H](C)NC(=O)[C@H](C)NC(=O)[C@H](CCC(N)=O)NC(=O)[C@H](CCCCNC(=O)COCCOCCNC(=O)COCCOCCNC(=O)CC[C@H](NC(=O)CCCCCCCCCCCCCCCCCCC(=O)O)C(=O)O)NC(=O)[C@H](CC(=O)O)NC(=O)[C@H](CC(C)C)NC(=O)[C@@H](NC(=O)[C@@H](NC(=O)[C@H](C)NC(=O)[C@H](CC(C)C)NC(=O)[C@H](CCC(=O)O)NC(=O)[C@H](CO)NC(=O)[C@@H](NC(=O)[C@H](Cc1ccccc1)NC(=O)[C@H](CO)NC(=O)CNC(=O)[C@H](CCC(=O)O)NC(=O)C(C)(C)NC(=O)[C@@H](N)Cc1c[nH]cn1)[C@@H](C)O)[C@@H](C)O)[C@@H](C)CC)C(=O)N[C@@H](C)C(=O)N[C@@H](Cc1c[nH]c2ccccc12)C(=O)N[C@@H](CC(C)C)C(=O)N[C@@H](CCCCN)C(=O)N[C@@H](CCC(N)=O)C(=O)N[C@@H](Cc1c[nH]cn1)C(=O)N[C@@H](CCCCN)C(=O)N[C@H](C(=O)N[C@H](C(=O)N[C@@H](CC(=O)O)C(=O)O)[C@@H](C)O)[C@@H](C)CC

Positions count from the first letter of the chain named. *1 amine or outer side, *2 acyl side, *3 side chain or, on linkers, in order; H or OH if unused. Side-chain parts run from the residue outwards. [ ]: non-standard residue; d: D form. The star is where a group is joined. C20 diacid = O=C(O)CCCCCCCCCCCCCCCCCCC(=O)*; C18 diacid = O=C(O)CCCCCCCCCCCCCCCCC(=O)*; γGlu = O=C(O)[C@H](CCC(=O)[*:2])N[*:1]; εLys = N[C@@H](CCCCN[*:1])C(=O)[*:2]; Stearoyl = CCCCCCCCCCCCCCCCCC(=O)*; AEEA = NCCOCCOCC(=O)O; Aib = CC(C)(N)C(=O)O

For the first experiment, the target named is T1, human GLP-2 receptor (hGLP2-R) (human, UniProt O95838 1-553).
T1 sequence (looked up): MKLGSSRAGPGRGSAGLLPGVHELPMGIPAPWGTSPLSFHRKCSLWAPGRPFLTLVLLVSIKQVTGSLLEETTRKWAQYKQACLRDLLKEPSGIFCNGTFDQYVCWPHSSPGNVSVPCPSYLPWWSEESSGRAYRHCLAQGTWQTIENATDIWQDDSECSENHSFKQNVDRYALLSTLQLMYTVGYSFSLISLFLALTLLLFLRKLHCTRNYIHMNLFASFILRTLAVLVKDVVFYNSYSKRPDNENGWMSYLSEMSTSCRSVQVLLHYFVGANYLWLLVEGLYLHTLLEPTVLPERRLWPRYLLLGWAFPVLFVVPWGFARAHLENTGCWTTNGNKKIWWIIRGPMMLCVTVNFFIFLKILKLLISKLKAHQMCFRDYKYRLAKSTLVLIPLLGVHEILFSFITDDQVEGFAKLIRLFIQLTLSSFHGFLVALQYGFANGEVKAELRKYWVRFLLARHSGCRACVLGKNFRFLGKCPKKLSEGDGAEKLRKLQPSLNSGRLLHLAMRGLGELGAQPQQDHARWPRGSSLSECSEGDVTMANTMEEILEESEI
As to the kind of experiment: cell-based or functional assay.
In the case of B1, the “EC50 GLP-2 (nM); cAMP response” value was 0.3 nM.
As for B2, the “EC50 GLP-2 (nM); cAMP response” value came to 3.2 nM.
B3: the “EC50 GLP-2 (nM); cAMP response” value is 0.28 nM.
In the case of B4, the “EC50 GLP-2 (nM); cAMP response” value stood at 0.46 nM.
On to B5, for which the “EC50 GLP-2 (nM); cAMP response” value is 0.072 nM.
Still for that read-out and setting: to H-H[Aib]EGTFSSELATILDEQAARDFIAWLIAHKITD[dK][dK][dK][dK][dK][dK]([γGlu-C18 diacid])-NH2 [Compound 38] belongs 0.89 nM; to B6, 0.13 nM.

For a further experiment, the target named is human glucagon-like peptide 1 receptor (GLP-1 R) (human, UniProt P43220 24-463). Put plainly: cell-based or functional assay.
As to B1, the “EC50 GLP-1 (nM); cAMP response” value was 0.099 nM.
Still for that read-out and setting: to B2 belongs 0.32 nM.
As for B3, the “EC50 GLP-1 (nM); cAMP response” value was 3.9 nM.
For B4, the “EC50 GLP-1 (nM); cAMP response” value was 0.38 nM.
On to B5, for which the “EC50 GLP-1 (nM); cAMP response” value amounted to 0.85 nM.
Consider H-H[Aib]EGTFSSELATILDEQAARDFIAWLIAHKITD[dK][dK][dK][dK][dK][dK]([γGlu-C18 diacid])-NH2 [Compound 38], for which the “EC50 GLP-1 (nM); cAMP response” value stood at 0.25 nM.
Consider B6, for which the “EC50 GLP-1 (nM); cAMP response” value turned out to be 0.28 nM.
